Key:
Conditions in all cases: both partners purified
[1] = biological target: T1, SurA (E. coli periplasmic chaperone, wild type, mature sequence) (E. coli, UniProt P0ABZ6 21-428); test: MST; 50 nM Alexa Fluor 488-labelled Cys-OmpX, SurA titrated 100 µM-3 nM, 0.24 M urea, 50 mM Tris-HCl pH 8.0; fitted to the Hill equation; apparent
T1 construct: numbering is the gene numbering with the signal peptide; also called SurA WT; apo-SurA; source: E. coli BL21(DE3), purified (HisTrap, denatured on-column with 6 M Gdn-HCl, TEV cleavage, second HisTrap); not shown: His6, N-terminal, cleaved
T1 sequence (looked up): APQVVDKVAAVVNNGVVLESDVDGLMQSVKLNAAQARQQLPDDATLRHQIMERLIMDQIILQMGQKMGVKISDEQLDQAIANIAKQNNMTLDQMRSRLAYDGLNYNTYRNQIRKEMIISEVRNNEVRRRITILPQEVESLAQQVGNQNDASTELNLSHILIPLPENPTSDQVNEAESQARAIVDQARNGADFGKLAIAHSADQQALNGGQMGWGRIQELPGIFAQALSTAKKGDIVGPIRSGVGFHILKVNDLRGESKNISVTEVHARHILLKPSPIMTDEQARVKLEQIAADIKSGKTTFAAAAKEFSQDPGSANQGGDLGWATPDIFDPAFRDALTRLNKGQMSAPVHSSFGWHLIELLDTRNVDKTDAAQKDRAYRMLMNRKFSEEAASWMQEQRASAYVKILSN

[2] = biological target: T1, SurA (E. coli periplasmic chaperone, …); test: HDX-MS; differential HDX of 8 µM SurA without and with 8 µM OmpX or OmpF, 10 mM potassium phosphate pH 8.0, 0.24 M urea, 4 °C, 0.5-120 min
[3] = biological target: T2, SurA Q85C-N193C labelled with Alexa Fluor 488 and Alexa Fluor 594 (E. coli, UniProt P0ABZ6 21-428, Q85C | N193C, Alexa Fluor 488 C5 maleimide and Alexa Fluor 594 C5 maleimide, stochastically, on Cys 85 and Cys 193); test: FRET or BRET; intramolecular smFRET (ALEX) of ~50 pM doubly labelled SurA variant with 1.5 µM OmpX or OmpF, 50 mM Tris-HCl pH 8.0, 0.24 M urea, 25 °C; change of the inter-domain E_FRET distribution against apo-SurA
T2 construct: gene numbering with the signal peptide; also called core-P1 SurA variant; SurA core-P1; source: E. coli BL21(DE3), purified as wild type with 10 mM DTT; labelled with Alexa Fluor maleimides, SEC; not shown: His6, N-terminal, cleaved
T2 sequence (looked up): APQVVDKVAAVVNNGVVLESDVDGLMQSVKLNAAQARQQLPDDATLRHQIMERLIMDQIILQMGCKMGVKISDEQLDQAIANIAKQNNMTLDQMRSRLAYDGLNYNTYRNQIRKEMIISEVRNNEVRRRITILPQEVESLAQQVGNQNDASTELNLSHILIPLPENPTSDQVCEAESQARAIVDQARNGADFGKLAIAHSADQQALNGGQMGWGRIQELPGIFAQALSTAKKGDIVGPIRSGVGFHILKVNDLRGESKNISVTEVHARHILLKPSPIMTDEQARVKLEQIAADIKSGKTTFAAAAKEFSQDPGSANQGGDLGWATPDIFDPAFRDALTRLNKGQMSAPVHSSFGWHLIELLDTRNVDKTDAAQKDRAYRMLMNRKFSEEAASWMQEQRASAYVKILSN

[4] = biological target: T1, SurA (E. coli periplasmic chaperone, …); test: cross-linking; DSBU, 5 µM SurA, 5 µM OmpX, 0.24 M urea, 10 mM potassium phosphate pH 8.0, 45 min, room temperature; SDS-PAGE band, in-gel digestion, LC-MS/MS
[5] = biological target: T1, SurA (E. coli periplasmic chaperone, …); test: cross-linking; tag-transfer photo-cross-linking: 10 µM SurA, 5 µM MTS-diazirine-labelled OmpX Cys variant, 0.24 M urea, 10 mM potassium phosphate pH 8.0, UV LED 30 s; SDS-PAGE, LC-MS/MS
[6] = biological target: T1, SurA (E. coli periplasmic chaperone, …); test: HDX-MS; differential HDX of 8 µM SurA without and with 110 µM WEYIPNV, 10 mM potassium phosphate pH 8.0, 4 °C, 0.5-120 min
[7] = biological target: T2, SurA Q85C-N193C labelled with Alexa …; test: FRET or BRET; intramolecular smFRET (ALEX) of ~50 pM doubly labelled SurA variant with 1.5 µM WEYIPNV, 50 mM Tris-HCl pH 8.0, 25 °C; change of the inter-domain E_FRET distribution against apo-SurA
[8] = biological target: T3, SurA Q85C-E301C labelled with Alexa Fluor 488 and Alexa Fluor 594 (E. coli, UniProt P0ABZ6 21-428, Q85C | E301C, Alexa Fluor 488 C5 maleimide and Alexa Fluor 594 C5 maleimide, stochastically, on Cys 85 and Cys 301); test: as above
T3 construct: gene numbering with the signal peptide; also called core-P2 SurA variant; SurA core-P2; source: E. coli BL21(DE3), purified as wild type with 10 mM DTT; labelled with Alexa Fluor maleimides, SEC; not shown: His6, N-terminal, cleaved
T3 sequence (looked up): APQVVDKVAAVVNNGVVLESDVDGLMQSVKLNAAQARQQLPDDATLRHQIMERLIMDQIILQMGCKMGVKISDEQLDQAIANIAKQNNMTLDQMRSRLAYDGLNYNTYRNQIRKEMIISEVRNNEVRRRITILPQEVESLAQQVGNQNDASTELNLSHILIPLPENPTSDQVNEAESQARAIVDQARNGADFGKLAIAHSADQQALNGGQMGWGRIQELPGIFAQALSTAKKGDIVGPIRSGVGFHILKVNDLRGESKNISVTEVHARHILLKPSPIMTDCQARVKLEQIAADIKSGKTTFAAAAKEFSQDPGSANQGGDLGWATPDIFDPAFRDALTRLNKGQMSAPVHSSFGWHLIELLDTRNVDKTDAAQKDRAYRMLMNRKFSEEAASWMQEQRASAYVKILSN

B1: Cys-OmpX labelled with Alexa Fluor 488 (natural protein, E. coli)
chain: MGSCATSTVTGGYAQSDAQGQMNKMGGFNLKYRYEEDNSPLGVIGSFTYTEKSRTASSGDYNKNQYYGITAGPAYRINDWASIYGVVGVGYGKFQTTEYPTYKHDTSDYGFSYGAGLQFNPMENVALDFSYEQSRIRSVDVGTWIAGVGYRF
modifications: Alexa Fluor 488 C5 maleimide on the added Cys
notes: N-terminal Met followed by the added residues Gly-Ser-Cys (named in words); also called labelled Cys-OmpX; source: E. coli BL21[DE3], inclusion bodies, purified; labelled with Alexa Fluor 488 C5 maleimide
- Kd [1]: ~800 nM

B2: OmpF (E. coli outer membrane protein F, mature sequence, unfolded) (natural protein, UniProt P02931 23-362, looked up)
chain: AEIYNKDGNKVDLYGKAVGLHYFSKGNGENSYGGNGDMTYARLGFKGETQINSDLTGYGQWEYNFQGNNSEGADAQTGNKTRLAFAGLKYADVGSFDYGRNYGVVYDALGYTDMLPEFGGDTAYSDDFFVGRVGGVATYRNSNFFGLVDGLNFAVQYLGKNERDTARRSNGDGVGGSISYEYEGFGIVGAYGAADRTNLQEAQPLGNGKKAEQWATGLKYDANNIYLAANYGETRNATPITNKFTNTSGFANKTQDVLLVAQYQFDFGLRPSIAYTKSKAKDVEGIGDVDLVNYFEVGATYYFNKNMSTYVDYIINQIDSDNKLGVGSDDTVAVGIVYQF
notes: source: E. coli BL21[DE3], inclusion bodies, purified (gel filtration in 6 M Gdn-HCl); urea-denatured and diluted into the assay
- binding result [2]: binds
- binding result [3]: binds

B3: OmpX (E. coli outer membrane protein X, mature sequence, unfolded) (natural protein)
chain: MATSTVTGGYAQSDAQGQMNKMGGFNLKYRYEEDNSPLGVIGSFTYTEKSRTASSGDYNKNQYYGITAGPAYRINDWASIYGVVGVGYGKFQTTEYPTYKHDTSDYGFSYGAGLQFNPMENVALDFSYEQSRIRSVDVGTWIAGVGYRF
notes: N-terminal Met residue of the construct (named in words); Unfolded client in 0.24 M urea; source: E. coli BL21[DE3], inclusion bodies, purified (gel filtration in 6 M Gdn-HCl); urea-denatured and diluted into the assay
- binding result [4]: binds
- binding result [3]: binds

B4: OmpX I102C labelled with MTS-diazirine (natural protein, E. coli)
chain: MATSTVTGGYAQSDAQGQMNKMGGFNLKYRYEEDNSPLGVIGSFTYTEKSRTASSGDYNKNQYYGITAGPAYRINDWASCYGVVGVGYGKFQTTEYPTYKHDTSDYGFSYGAGLQFNPMENVALDFSYEQSRIRSVDVGTWIAGVGYRF
modifications: MTS-diazirine on Cys 102
notes: N-terminal Met residue of the OmpX construct (named in words); source: purified, conjugated with MTS-diazirine in 6 M guanidine-HCl
- binding result [5]: binds

B5: OmpX K122C labelled with MTS-diazirine (natural protein, E. coli)
chain: MATSTVTGGYAQSDAQGQMNKMGGFNLKYRYEEDNSPLGVIGSFTYTEKSRTASSGDYNKNQYYGITAGPAYRINDWASIYGVVGVGYGKFQTTEYPTYCHDTSDYGFSYGAGLQFNPMENVALDFSYEQSRIRSVDVGTWIAGVGYRF
modifications: MTS-diazirine on Cys 122
notes: as for B4
- binding result [5]: binds

B6: OmpX M41C labelled with MTS-diazirine (natural protein, E. coli)
chain: MATSTVTGGYAQSDAQGQCNKMGGFNLKYRYEEDNSPLGVIGSFTYTEKSRTASSGDYNKNQYYGITAGPAYRINDWASIYGVVGVGYGKFQTTEYPTYKHDTSDYGFSYGAGLQFNPMENVALDFSYEQSRIRSVDVGTWIAGVGYRF
modifications: MTS-diazirine on Cys 41
notes: as for B4
- binding result [5]: binds

B7: OmpX V167C labelled with MTS-diazirine (natural protein, E. coli)
chain: MATSTVTGGYAQSDAQGQMNKMGGFNLKYRYEEDNSPLGVIGSFTYTEKSRTASSGDYNKNQYYGITAGPAYRINDWASIYGVVGVGYGKFQTTEYPTYKHDTSDYGFSYGAGLQFNPMENVALDFSYEQSRIRSVDVGTWIAGCGYRF
modifications: MTS-diazirine on Cys 167
notes: as for B4
- binding result [5]: binds

Binder: WEYIPNV [WEYIPNV peptide]
- binding result [6]: binds
- binding result [7]: binds
- binding result [8]: binds

— PMC7195389, “Inter-domain dynamics in the chaperone SurA and multi-site binding to its outer membrane protein clients” (Nature Communications, 2020)
